Results on 1 molecule are retold here after patent US20240402174A1 (Takeda / Millennium, published 2024).

Test [1] has as its target T1, GII.17/1978 VLP (norovirus Hu/GII.17/C142/GF/1978).
T1 construct: also called Hu/GII.17/C142/GF/1978
T1 chain: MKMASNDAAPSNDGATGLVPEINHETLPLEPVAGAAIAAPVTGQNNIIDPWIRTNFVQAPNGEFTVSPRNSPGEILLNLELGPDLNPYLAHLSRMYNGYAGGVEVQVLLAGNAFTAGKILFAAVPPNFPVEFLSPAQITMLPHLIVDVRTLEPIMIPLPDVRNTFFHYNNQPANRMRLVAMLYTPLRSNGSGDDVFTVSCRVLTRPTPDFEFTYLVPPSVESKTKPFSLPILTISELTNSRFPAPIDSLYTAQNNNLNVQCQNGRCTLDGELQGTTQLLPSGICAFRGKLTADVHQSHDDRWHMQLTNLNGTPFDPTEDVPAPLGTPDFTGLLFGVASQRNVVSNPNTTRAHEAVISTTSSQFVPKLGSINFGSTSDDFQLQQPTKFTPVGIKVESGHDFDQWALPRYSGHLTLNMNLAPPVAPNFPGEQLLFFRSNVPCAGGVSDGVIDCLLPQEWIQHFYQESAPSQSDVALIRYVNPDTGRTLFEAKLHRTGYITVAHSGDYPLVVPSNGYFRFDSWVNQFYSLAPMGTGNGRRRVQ
In words: multiplex microsphere immunoassay.

The target of test [2] is T2, GII.1 VLP (norovirus Hu/GII.1/Ascension208/2010/USA).
T2 chain: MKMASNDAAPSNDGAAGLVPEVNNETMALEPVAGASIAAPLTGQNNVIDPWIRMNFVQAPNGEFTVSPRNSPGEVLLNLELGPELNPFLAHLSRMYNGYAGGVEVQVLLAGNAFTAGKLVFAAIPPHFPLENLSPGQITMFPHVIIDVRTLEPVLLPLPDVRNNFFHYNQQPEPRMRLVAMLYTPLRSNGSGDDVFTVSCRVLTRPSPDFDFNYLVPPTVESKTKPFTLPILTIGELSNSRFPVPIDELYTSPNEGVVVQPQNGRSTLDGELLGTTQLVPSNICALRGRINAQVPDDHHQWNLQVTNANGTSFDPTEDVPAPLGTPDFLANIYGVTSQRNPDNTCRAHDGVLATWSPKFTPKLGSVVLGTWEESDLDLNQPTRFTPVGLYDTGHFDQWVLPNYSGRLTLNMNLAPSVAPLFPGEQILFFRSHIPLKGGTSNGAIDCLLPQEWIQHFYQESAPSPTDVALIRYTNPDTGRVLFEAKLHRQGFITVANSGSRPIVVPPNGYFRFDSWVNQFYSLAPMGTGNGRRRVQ
In words: multiplex microsphere immunoassay.

For test [3], the target named is T3, GII.4/Sydney VLP (norovirus …, UniProt P54635 1-538).
T3 construct: also called Hu/GII.4/Sydney/NSW0514/2012/AU
T3 chain: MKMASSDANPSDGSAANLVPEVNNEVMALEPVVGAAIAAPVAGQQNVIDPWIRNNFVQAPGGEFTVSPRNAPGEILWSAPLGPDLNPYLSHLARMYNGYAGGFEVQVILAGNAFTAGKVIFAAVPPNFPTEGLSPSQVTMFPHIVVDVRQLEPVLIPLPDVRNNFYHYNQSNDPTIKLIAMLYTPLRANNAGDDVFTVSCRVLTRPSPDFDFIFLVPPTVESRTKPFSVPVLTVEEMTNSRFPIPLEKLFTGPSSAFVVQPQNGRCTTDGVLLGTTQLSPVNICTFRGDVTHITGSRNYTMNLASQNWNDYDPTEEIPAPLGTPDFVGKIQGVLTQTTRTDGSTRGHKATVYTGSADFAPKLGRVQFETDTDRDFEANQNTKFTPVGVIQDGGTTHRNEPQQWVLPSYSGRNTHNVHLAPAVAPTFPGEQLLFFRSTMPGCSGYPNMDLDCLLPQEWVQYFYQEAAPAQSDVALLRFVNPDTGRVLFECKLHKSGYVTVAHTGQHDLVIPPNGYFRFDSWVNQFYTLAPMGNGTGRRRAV
Put plainly: PGM blockade assay, serially diluted mAb.
Description: (§1) Plates were washed 3 times with PBST before use. […] The mixture was transferred to the PGM-coated plates including VLP-only controls and incubation carried out for 1 h at 22° C. or 37° C. Following 3 washes with PBST, detection antibody specific for the corresponding VLP was added and the plates were incubated at room temperature for 1 h and then washed 3 times with PBST. […] Following 3 washes, enzyme substrate (ABTS, KPL) was added and allowed to react for 12 min at room temperature. ABTS Peroxidase Stop Solution (KPL) was then added and plates were read at a wavelength of 450 nm in a Molecular Devices plate reader using SoftMax Pro Software (Molecular Devices, Downingtown, PA, USA) to obtain the Optical Density (GD) of each well.
(§2) The following, day corresponding dilutions incubated with VLPs were transferred to the PGM-coated plates. The OD data was curve fit and blocking titers were calculated as the supernatant dilution interpolated at 1/2 the maximum OD for the plate. The blocking titers represent the supernatant dilution that produces a 50% reduction in VLP binding to PGM. The maximum OD for the plate was calculated from the VLP only control.

Test [4] has as its target T4, GII.4/Yerseke VLP (norovirus Hu/GII.4/Yerseke38/2006/NL, UniProt P54635 1-539).
T4 construct: also called Hu/GII.4/Yerseke38/2006/NL
T4 chain: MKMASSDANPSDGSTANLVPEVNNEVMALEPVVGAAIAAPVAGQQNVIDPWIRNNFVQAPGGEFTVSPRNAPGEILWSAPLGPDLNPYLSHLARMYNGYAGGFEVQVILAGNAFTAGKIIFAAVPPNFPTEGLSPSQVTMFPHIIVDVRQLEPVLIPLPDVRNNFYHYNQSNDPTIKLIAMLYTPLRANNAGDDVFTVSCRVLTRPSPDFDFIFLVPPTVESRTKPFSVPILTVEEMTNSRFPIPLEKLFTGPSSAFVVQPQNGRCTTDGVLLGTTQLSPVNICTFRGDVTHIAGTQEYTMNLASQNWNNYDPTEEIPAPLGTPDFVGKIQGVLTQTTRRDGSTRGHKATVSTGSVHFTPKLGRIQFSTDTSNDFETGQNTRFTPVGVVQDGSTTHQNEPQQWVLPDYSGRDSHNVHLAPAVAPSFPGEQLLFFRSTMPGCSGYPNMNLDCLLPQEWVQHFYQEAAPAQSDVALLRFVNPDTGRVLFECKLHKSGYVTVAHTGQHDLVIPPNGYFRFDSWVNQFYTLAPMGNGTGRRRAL
Put plainly: PGM blockade assay, serially diluted mAb.
Description: as §1, §2

Test [5] has as its target T5, GII.4/Houston VLP (norovirus …, UniProt P54635 1-539).
T5 construct: also called Hu/GII.4/Houston/TCH186/2002/US
T5 chain: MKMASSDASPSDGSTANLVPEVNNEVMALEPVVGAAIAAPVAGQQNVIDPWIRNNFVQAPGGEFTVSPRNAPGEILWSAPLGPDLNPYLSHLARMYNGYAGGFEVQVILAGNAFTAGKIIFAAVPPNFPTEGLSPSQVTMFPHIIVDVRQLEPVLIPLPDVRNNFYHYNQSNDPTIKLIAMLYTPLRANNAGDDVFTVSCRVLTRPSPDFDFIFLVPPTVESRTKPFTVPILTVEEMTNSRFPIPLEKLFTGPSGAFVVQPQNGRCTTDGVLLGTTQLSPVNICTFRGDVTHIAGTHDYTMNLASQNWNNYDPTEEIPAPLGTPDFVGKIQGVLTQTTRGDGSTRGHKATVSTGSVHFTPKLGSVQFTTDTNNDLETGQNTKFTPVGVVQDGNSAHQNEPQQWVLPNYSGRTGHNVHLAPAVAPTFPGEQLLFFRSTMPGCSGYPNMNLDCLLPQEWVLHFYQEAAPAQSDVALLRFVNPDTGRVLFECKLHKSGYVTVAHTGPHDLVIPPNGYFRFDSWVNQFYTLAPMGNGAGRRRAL
In words: PGM blockade assay, serially diluted mAb.
Description: as §1, §2

B1: human mAb 1431 (antibody, V domains shown)
VH: QVQLVQSGGGLVQPGGSLRLSCAASGFAFSNHGMHWVRQAPGKGLEWLSYISGSTGAIHYANSVKGRFTISRDNARNSLDLQMNSLGDEDTAVYYCARDGPRPDGTGYAGPSNDYWGQGTLVSVSS
VL: EIVLTQSPASLSLSPGERATLSCKASRSISIYLAWYQQKPGQAPRLLIYDASYRAIGIPARFSGSGSGTDFTLTISNLEPEDFAVYYCQHRSSWPALTFGGGTKVEI
notes: also called A1431
For B1, the binding result in test [1] and in test [2] was “no binding” each time. Also, the blocking titer was 7280 in test [3], 4850 in test [4] and 12100 in test [5].
